Source: patent US20010034432A1

Experiments:
[1] = biological target: human CCR5 with a C-terminal glycine residue followed by the C9 nonapeptide tag (expressed from the (human; bovine) (UniProt P51681); test: immunoprecipitation from 35S-labeled Cf2Th/PACH/synCCR5 lysate in 1% DHPC, SDS-PAGE
[2] = biological target: human CCR5 with a C-terminal glycine residue followed by the C9 nonapeptide tag (expressed from the (human; bovine) (UniProt P51681); test: immunoprecipitation from 35S-labeled Cf2Th/PACH/synCCR5 lysate in 1% Cymal-5, SDS-PAGE
[3] = biological target: human CCR5 with a C-terminal glycine residue followed by the C9 nonapeptide tag (expressed from the (human; bovine) (UniProt P51681); test: immunoprecipitation from 35S-labeled Cf2Th/PACH/synCCR5 lysate in 1% Fos-Choline-14, SDS-PAGE
[4] = biological target: cleavage-defective, cytoplasmic tail-truncated gp160 envelope glycoprotein of the YU2 HIV-1 primary (HIV-1 YU2 primary isolate; bovine) (UniProt P35961); test: FACS binding curves on gp160-expressing 293T cells and gp160-proteoliposomes
Sequence of UniProt P35961 (P35961 whole entry, the tested form may be a part): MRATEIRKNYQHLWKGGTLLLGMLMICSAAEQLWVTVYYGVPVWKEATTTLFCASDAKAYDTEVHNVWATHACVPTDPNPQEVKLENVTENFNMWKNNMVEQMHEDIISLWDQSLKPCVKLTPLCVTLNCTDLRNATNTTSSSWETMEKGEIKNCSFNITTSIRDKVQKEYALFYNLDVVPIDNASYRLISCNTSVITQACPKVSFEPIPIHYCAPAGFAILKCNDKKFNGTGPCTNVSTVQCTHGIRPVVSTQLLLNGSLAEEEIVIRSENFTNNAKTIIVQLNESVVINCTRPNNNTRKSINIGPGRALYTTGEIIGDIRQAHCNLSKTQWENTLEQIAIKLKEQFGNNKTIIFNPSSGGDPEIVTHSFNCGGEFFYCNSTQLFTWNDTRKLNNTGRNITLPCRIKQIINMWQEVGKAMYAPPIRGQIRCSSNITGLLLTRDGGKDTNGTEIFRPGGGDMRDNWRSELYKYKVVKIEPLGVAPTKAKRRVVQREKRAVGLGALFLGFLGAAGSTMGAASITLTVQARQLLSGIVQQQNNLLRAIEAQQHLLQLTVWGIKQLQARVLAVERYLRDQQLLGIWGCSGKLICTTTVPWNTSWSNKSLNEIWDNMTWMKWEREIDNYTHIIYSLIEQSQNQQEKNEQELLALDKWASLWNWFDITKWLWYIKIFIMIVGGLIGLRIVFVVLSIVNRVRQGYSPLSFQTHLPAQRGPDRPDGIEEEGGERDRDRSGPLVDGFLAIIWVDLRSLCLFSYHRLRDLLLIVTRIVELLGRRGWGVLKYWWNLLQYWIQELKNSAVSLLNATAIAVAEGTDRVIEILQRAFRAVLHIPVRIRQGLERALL

Sequence of UniProt P51681 (P51681 whole entry, the tested form may be a part): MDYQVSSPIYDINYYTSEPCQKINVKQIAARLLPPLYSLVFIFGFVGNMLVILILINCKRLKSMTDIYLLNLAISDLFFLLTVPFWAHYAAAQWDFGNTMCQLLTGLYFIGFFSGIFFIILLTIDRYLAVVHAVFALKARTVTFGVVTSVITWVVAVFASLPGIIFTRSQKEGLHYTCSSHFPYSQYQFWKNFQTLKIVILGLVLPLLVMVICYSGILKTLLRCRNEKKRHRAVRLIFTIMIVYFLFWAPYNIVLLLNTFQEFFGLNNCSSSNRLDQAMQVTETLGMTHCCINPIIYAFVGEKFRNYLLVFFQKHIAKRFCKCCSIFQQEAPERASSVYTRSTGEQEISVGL

Substance	percentage of conformationally intact CCR5 (CCR5 precipitated by 2D7 relative to that precipitated by 1D4) [1] [%]	percentage of conformationally intact CCR5 (CCR5 precipitated by 2D7 relative to that precipitated by 1D4) [2] [%]	percentage of conformationally intact CCR5 (CCR5 precipitated by 2D7 relative to that precipitated by 1D4) [3] [%]	EC50 [4] [µg/mL]
2D7 anti-CCR5 antibody (conformation-dependent)	10	98	13	
CD4BS antibody IgGb12				< 1
